This is an account of results in publication PMC11612176 (The EMBO Journal, 2024).

Where two headings read alike, the source gives them in different places.

The target of assay [1] is T1, ComM (Legionella pneumophila, UniProt A0A3A6V972).
T1 construct: gene yifB
The conditions noted are these: 5 mM AMPPNP, dsDNA/ssDNA hybrid, pH 8.0, 37 °C incubation; active site at interface between adjacent subunits.

The target in assay [2] is ComM from L. pneumophila fused to a C-terminal His6-tag (Legionella pneumophila) (UniProt Q5ZXZ0). Description: cryo-EM structure.
Assay [3] shares this target. Description: cryo-EM structure. This is another data set of the same source.
In assay [4] the target is RadA R301A mutant from S. pneumoniae (Streptococcus pneumoniae) (UniProt Q8DRP0). Description: not stated; oligomeric state of RadA as purified for the biochemical assays.
The target of assay [5] is RadA from S. pneumoniae (Strep-tagged, for cryoEM) (Streptococcus pneumoniae) (UniProt Q8DRP0). The assay is described as follows: cryo-EM structure; 7 uM RadA with 10 uM gapped hybrid DNA (combination CD) and 5 mM ATP-gamma-S, 30 min at 37 °C; Hepes 50 mM pH 8.0, NaCl 100 mM.

For `Nc1ncnc2c1ncn2[C@@H]1O[C@H](COP(=O)(O)OP(=O)(O)NP(=O)(O)O)[C@@H](O)[C@H]1O` [AMPPNP], in assay [1], the “cryoEM structure, 3.1 Å” value is reported as “AMPPNP, which is located at the interface between two adjacent subunits”.

On to “ComM from L. pneumophila fused to a C-terminal His6-tag (from UniProt Q5ZXZ0 1-503) (enzyme)”, for which the stoichiometry N came out at 6 in assay [2] and 12 in assay [3].

“RadA R301A mutant from S. pneumoniae (from UniProt Q8DRP0) (enzyme)” displayed a stoichiometry N in assay [4] of 6.

“RadA from S. pneumoniae (Strep-tagged, for cryoEM) (from UniProt Q8DRP0 1-420) (enzyme)”: in assay [5], the stoichiometry N was determined as 6.
